The record followed here is US9575076.

pKd: −log10 of the molar value.

The target of test [1] is Chorionic Gonadotropin (CG) (UniProt P01215). Kind of test: FRET quenching titration, BHQ-10 antibody and Alexa Fluor 488 antigen.
The target in test [2] is Follicle Stimulating Hormone (FSH) (UniProt P01215). The test is described as above.
Test [3] concerns the target Luteinizing Hormone (LH) (UniProt P01215). The description is as above.
The target of test [4] is Thyroid Stimulating Hormone (TSH) (UniProt P01215). The test is described as above.
Test [5] has the same target. Kind of test: FRET competition on Alexa488-labelled antigen; competitor BHQ-labelled M4.
For test [6] the target is unchanged. Kind of test: FRET competition on Alexa488-labelled antigen; competitor BHQ-labelled 414B.
The target is the same in test [7]. In words: FRET competition on Alexa488-labelled antigen; competitor BHQ-labelled 5409.
Test [8] has the same target. In words: FRET competition on Alexa488-labelled antigen; competitor BHQ-labelled T25C.
Test [9] shares this target. In words: FRET competition on Alexa488-labelled antigen; competitor BHQ-labelled ME130.
The target is the same in test [10]. In words: i-STAT sandwich cartridge with TSH; capture beads ME130, detection conjugate M4.
Test [11] shares this target. Kind of test: FRET competition on Alexa488-labelled antigen; competitor BHQ-labelled TSH Ab 544.
Test [12] has the same target. Kind of test: i-STAT sandwich cartridge with TSH; capture beads ME130, detection conjugate 5409.
The target is the same in test [13]. Kind of test: i-STAT sandwich cartridge with TSH; capture beads ME130, detection conjugate T25C.
Test [14] shares this target. Kind of test: i-STAT sandwich cartridge with TSH; capture beads ME130, detection conjugate TSH Ab 544.
Test [15] addresses Chorionic Gonadotropin (CG) (UniProt P01215). Kind of test: i-STAT sandwich cartridge, 0.4 mIU/L TSH plus CG, signal gain over TSH alone; capture ME130, detection 5409.
The target of test [16] is Luteinizing Hormone (LH) (UniProt P01215). Kind of test: i-STAT sandwich cartridge, 0.4 mIU/L TSH plus LH, signal gain over TSH alone; capture ME130, detection 5409.
Test [17] concerns the target Follicle Stimulating Hormone (FSH) (UniProt P01215). In words: i-STAT sandwich cartridge, 0.4 mIU/L TSH plus FSH, signal gain over TSH alone; capture ME130, detection 5409.
The target of test [18] is Thyroid Stimulating Hormone (TSH) (UniProt P01215). Kind of test: i-STAT sandwich cartridge with TSH; capture beads M4, detection conjugate 5409.
The target is the same in test [19]. In words: i-STAT sandwich cartridge with TSH; capture beads M4, detection conjugate T25C.
The target is the same in test [20]. Kind of test: i-STAT sandwich cartridge with TSH; capture beads M4, detection conjugate ME130.
For test [21] the target is unchanged. Kind of test: i-STAT sandwich cartridge with TSH; capture beads M4, detection conjugate TSH Ab 544.
Test [22] has the same target. In words: i-STAT sandwich cartridge with TSH; capture beads 414B, detection conjugate M4.
For test [23] the target is unchanged. In words: i-STAT sandwich cartridge with TSH; capture beads 414B, detection conjugate 5409.
For test [24] the target is unchanged. Kind of test: i-STAT sandwich cartridge with TSH; capture beads 414B, detection conjugate TSH Ab 544.
Test [25] concerns the target Chorionic Gonadotropin (CG) (UniProt P01215). In words: i-STAT sandwich cartridge, 0.4 mIU/L TSH plus CG, signal gain over TSH alone; capture 414B, detection 5409.
In test [26] the target is Luteinizing Hormone (LH) (UniProt P01215). Kind of test: i-STAT sandwich cartridge, 0.4 mIU/L TSH plus LH, signal gain over TSH alone; capture 414B, detection 5409.
Test [27] concerns the target Follicle Stimulating Hormone (FSH) (UniProt P01215). In words: i-STAT sandwich cartridge, 0.4 mIU/L TSH plus FSH, signal gain over TSH alone; capture 414B, detection 5409.
Test [28] has as its target Chorionic Gonadotropin (CG) (UniProt P01215). Kind of test: i-STAT sandwich cartridge, 0.4 mIU/L TSH plus CG, signal gain over TSH alone; capture 414B, detection TSH Ab 544.
Test [29] concerns the target Luteinizing Hormone (LH) (UniProt P01215). In words: i-STAT sandwich cartridge, 0.4 mIU/L TSH plus LH, signal gain over TSH alone; capture 414B, detection TSH Ab 544.
For test [30], the target named is Follicle Stimulating Hormone (FSH) (UniProt P01215). Kind of test: i-STAT sandwich cartridge, 0.4 mIU/L TSH plus FSH, signal gain over TSH alone; capture 414B, detection TSH Ab 544.
In test [31] the target is Thyroid Stimulating Hormone (TSH) (UniProt P01215). In words: i-STAT sandwich cartridge with TSH; capture beads 5409, detection conjugate M4.
The target is the same in test [32]. In words: i-STAT sandwich cartridge with TSH; capture beads 5409, detection conjugate T25C.
For test [33] the target is unchanged. Kind of test: i-STAT sandwich cartridge with TSH; capture beads 5409, detection conjugate ME130.
Test [34] has the same target. In words: i-STAT sandwich cartridge with TSH; capture beads 5409, detection conjugate TSH Ab 544.
Test [35] addresses Chorionic Gonadotropin (CG) (UniProt P01215). Kind of test: i-STAT sandwich cartridge, 0.4 mIU/L TSH plus CG, signal gain over TSH alone; capture 5409, detection T25C.
The target in test [36] is Luteinizing Hormone (LH) (UniProt P01215). In words: i-STAT sandwich cartridge, 0.4 mIU/L TSH plus LH, signal gain over TSH alone; capture 5409, detection T25C.
Test [37] deals with Chorionic Gonadotropin (CG) (UniProt P01215). In words: i-STAT sandwich cartridge, 0.4 mIU/L TSH plus CG, signal gain over TSH alone; capture 5409, detection ME130.
Test [38] deals with Follicle Stimulating Hormone (FSH) (UniProt P01215). Kind of test: i-STAT sandwich cartridge, 0.4 mIU/L TSH plus FSH, signal gain over TSH alone; capture 5409, detection T25C.
For test [39], the target named is Luteinizing Hormone (LH) (UniProt P01215). In words: i-STAT sandwich cartridge, 0.4 mIU/L TSH plus LH, signal gain over TSH alone; capture 5409, detection ME130.
In test [40] the target is Follicle Stimulating Hormone (FSH) (UniProt P01215). Kind of test: i-STAT sandwich cartridge, 0.4 mIU/L TSH plus FSH, signal gain over TSH alone; capture 5409, detection ME130.
The target in test [41] is Thyroid Stimulating Hormone (TSH) (UniProt P01215). In words: i-STAT sandwich cartridge with TSH; capture beads T25C, detection conjugate M4.
The target is the same in test [42]. In words: i-STAT sandwich cartridge with TSH; capture beads T25C, detection conjugate 414B.
Test [43] shares this target. In words: i-STAT sandwich cartridge with TSH; capture beads T25C, detection conjugate 5409.
For test [44] the target is unchanged. Kind of test: i-STAT sandwich cartridge with TSH; capture beads T25C, detection conjugate ME130.
The target is the same in test [45]. In words: i-STAT sandwich cartridge with TSH; capture beads T25C, detection conjugate TSH Ab 544.
The target in test [46] is Chorionic Gonadotropin (CG) (UniProt P01215). In words: i-STAT sandwich cartridge, 0.4 mIU/L TSH plus CG, signal gain over TSH alone; capture T25C, detection 5409.
The target of test [47] is Luteinizing Hormone (LH) (UniProt P01215). Kind of test: i-STAT sandwich cartridge, 0.4 mIU/L TSH plus LH, signal gain over TSH alone; capture T25C, detection 5409.
Test [48] deals with Follicle Stimulating Hormone (FSH) (UniProt P01215). Kind of test: i-STAT sandwich cartridge, 0.4 mIU/L TSH plus FSH, signal gain over TSH alone; capture T25C, detection 5409.

A word on the pKd: it is −log10 of the Kd, conventionally taken in molar units. A low value points to a high Kd. AbCAM ME-130 mouse monoclonal antibody: the negative-log Kd (pKd) in test [1] was 7.35; in test [2], 7.15; in test [3] it was 7.27; in test [4], 10.40. Besides, the relative fluorescence in test [5] is 0.77 normalized; in test [6], 0.99 normalized; in test [7] it was 0.82 normalized; in [8], 0.88 normalized; in test [9], 1 normalized; in [11], 0.82 normalized. The electrochemical current is 50.5 nA in [10], 54.7 nA in [12], -0.1 nA in test [13] and 10.8 nA in [14]. The CG CR (%) in test [15] came out at 11.8%. The LH CR (%) in test [16] worked out at 11.1%. Besides, the FSH CR (%) in test [17] was 3.9%.
“Fitzgerald 10C-CR2151M4 mouse monoclonal antibody”: the pKd in test [1] is 6.26; in [2], 6.68; in [3], 6.52; in [4] it was 9.74. The relative fluorescence in test [5] came to 1 normalized; in test [6] it was 0.9 normalized; in test [7], 0.94 normalized; in test [8], 0.74 normalized; in [9] it was 0.76 normalized; in test [11], 0.98 normalized. Further, the electrochemical current in test [18] worked out at 20.7 nA; in test [19], 22.5 nA; in test [20] it was 39.9 nA; in [21] it was 0 nA.
Turning to “Seradyn anti-alpha-LH monoclonal antibody Cat#MIT0414B”, the pKd is 10.30 in test [1], 10.00 in [2], 10.30 in test [3] and 10.40 in test [4]. Also, the relative fluorescence in test [5] was 0.75 normalized; in test [6], 1 normalized; in test [7] it was 0.81 normalized; in test [8], 0.76 normalized; in test [9] it was 0.86 normalized; in test [11], 0.83 normalized. Moreover, the electrochemical current came to 41.3 nA in test [22], 40.3 nA in test [23] and 10.2 nA in test [24]. The CG CR (%) in [25] came out at 84.6%; in test [28], 39.2%. Besides, the LH CR (%) in [26] was 348%; in test [29], 467%. For the same substance, the FSH CR (%) in test [27] was found to be 260%; in test [30] it was 219%.
In the case of “TSH capture mouse monoclonal antibody Biospacific Cat#5409 SPTNE-5”, the pKd in test [1] is 6.30; in [2], 6.00; in [3], 6.00; in test [4], 10.00. Further, the relative fluorescence in test [5] stood at 0.9 normalized; in [6], 0.88 normalized; in test [7] it was 1 normalized; in test [8] it was 0.78 normalized; in [9], 0.78 normalized; in [11] it was 0.93 normalized. The electrochemical current was determined as 15.2 nA in [31], 34.6 nA in [32], 53.6 nA in [33] and 1.41 nA in test [34]. In addition, the CG CR (%) is 0.96% in test [35] and 0.78% in [37]. Moreover, the LH CR (%) in test [36] stood at 3.76%; in test [39] it was 10.1%. Further, the FSH CR (%) is 0.65% in [38] and 2.43% in test [40].
“signaling mouse monoclonal antibody Fitzgerald Cat#10-T25C”: the pKd was 7.40 in test [1], 6.52 in test [2], 7.46 in test [3] and 10.10 in test [4]. Further, the relative fluorescence stood at 0.92 normalized in [5]; 0.97 normalized in [6]; 0.95 normalized in test [7]; 1 normalized in [8]; 0.97 normalized in [9]; 0.97 normalized in test [11]. For the same substance, the electrochemical current in test [41] came to 40.9 nA; in test [42], 0.82 nA; in test [43], 49.7 nA; in test [44] it was 0.68 nA; in [45] it was 0.83 nA. In test [46], the CG CR (%) was 13.7%. The LH CR (%) in test [47] stood at 9.89%. Moreover, in test [48], the FSH CR (%) turned out to be 6.25%.
